Results as given in patent publication US20200102347A1 (AUCTUS BIOLOGIES, published 2020).
Positions count from the first letter of the chain named. Names may count otherwise. No end group written: not given here. *: point of attachment. RhodamineB = CCN(CC)c1ccc2c(-c3ccccc3C(=O)*)c3ccc(=[N+](CC)CC)cc-3oc2c1

T1: NativeRPtag(large)_with_Tags_and_Cys (Thermoanaerobacter tengcongensis)
T1 construct: Unlabeled in anisotropy assays; coupled through the engineered N-terminal Cys to SulfoLink agarose or maleimide plates in column, pull-down and ELISA assays
T1 chain: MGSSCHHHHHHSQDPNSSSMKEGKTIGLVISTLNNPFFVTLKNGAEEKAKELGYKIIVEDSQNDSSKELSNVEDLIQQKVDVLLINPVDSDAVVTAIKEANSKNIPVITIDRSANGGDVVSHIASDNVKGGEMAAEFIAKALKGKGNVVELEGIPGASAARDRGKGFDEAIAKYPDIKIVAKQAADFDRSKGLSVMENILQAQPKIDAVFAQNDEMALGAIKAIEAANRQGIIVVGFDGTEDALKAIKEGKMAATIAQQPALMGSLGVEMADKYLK

T2: NativeRPtag small for immobilization (Thermoanaerobacter tengcongensis, C-terminal Cys (GGC) coupled to SulfoLink agarose resin)
T2 construct: also called immobilized RPtag (small)
T2 peptide: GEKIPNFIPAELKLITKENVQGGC

T3: RPtag(small) Nd2, Cd4 (Thermoanaerobacter tengcongensis)
T3 peptide: RhodamineB-KIPNFIPAELKLITK

T4: MaturePDGF-β_NterminalPeptide
T4 construct: an N-terminal G was added and is left out of the numbering; also called PDGF-β peptide
T4 peptide: RhodamineB-GSLGSLTIAEPAMIAE

T5: RPtag(small) l14a (Thermoanaerobacter tengcongensis, N-terminal rhodamine)
T5 peptide: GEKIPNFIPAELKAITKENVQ

T6: native RPtag(small) (Thermoanaerobacter tengcongensis, N-terminal rhodamine)
T6 construct: Synthetic peptide
T6 peptide: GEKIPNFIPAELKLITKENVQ

T7: RPtag(small) l14k (Thermoanaerobacter tengcongensis, N-terminal rhodamine)
T7 construct: also called L14K RPtag(small)
T7 peptide: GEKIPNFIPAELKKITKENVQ

B1: Nterminally_tagged_NativeRPtag(large)_tagRFP (other)
chain: MGSSSQDPNSSSMKEGKTIGLVISTLNNPFFVTLKNGAEEKAKELGYKIIVEDSQNDSSKELSNVEDLIQQKVDVLLINPVDSDAVVTAIKEANSKNIPVITIDRSANGGDVVSHIASDNVKGGEMAAEFIAKALKGKGNVVELEGIPGASAARDRGKGFDEAIAKYPDIKIVAKQAADFDRSKGLSVMENILQAQPKIDAVFAQNDEMALGAIKAIEAANRQGIIVVGFDGTEDALKAIKEGKMAATIAQQPALMGSLGVEMADKYLKGSENLYFQGGSMVSKGEELIKENMHMKLYMEGTVNNHHFKCTSEGEGKPYEGTQTMRIKVVEGGPLPFAFDILATSFMYGSRTFINHTQGIPDFFKQSFPEGFTWERVTTYEDGGVLTATQDTSLQDGCLIYNVKIRGVNFPSNGPVMQKKTLGWEANTEMLYPADGGLEGRSDMALKLVGGGHLICNFKTTYRSKKPAKNLKMPGVYYVDHRLERIKEADKETYVEQHEVAVARYCDLPSKLGHKLNGSSGHHHHHHHH
notes: Fusion of RPtag(large), TEV site, tagRFP and 8XHis
B2: Cterminally_tagged_NativeRPtag(large)_tagRFP (other)
chain: MGSSHHHHHHHHGSMVSKGEELIKENMHMKLYMEGTVNNHHFKCTSEGEGKPYEGTQTMRIKVVEGGPLPFAFDILATSFMYGSRTFINHTQGIPDFFKQSFPEGFTWERVTTYEDGGVLTATQDTSLQDGCLIYNVKIRGVNFPSNGPVMQKKTLGWEANTEMLYPADGGLEGRSDMALKLVGGGHLICNFKTTYRSKKPAKNLKMPGVYYVDHRLERIKEADKETYVEQHEVAVARYCDLPSKLGHKLNGSSGENLYFQGGSSQDPNSSSMKEGKTIGLVISTLNNPFFVTLKNGAEEKAKELGYKIIVEDSQNDSSKELSNVEDLIQQKVDVLLINPVDSDAVVTAIKEANSKNIPVITIDRSANGGDVVSHIASDNVKGGEMAAEFIAKALKGKGNVVELEGIPGASAARDRGKGFDEAIAKYPDIKIVAKQAADFDRSKGLSVMENILQAQPKIDAVFAQNDEMALGAIKAIEAANRQGIIVVGFDGTEDALKAIKEGKMAATIAQQPALMGSLGVEMADKYLK
notes: Fusion of 8XHis, tagRFP, TEV site and RPtag(large)
B3: Nterminally tagged NativeRPtag(small)_tagRFP (other)
chain: MGSSGEKIPNFIPAELKLITKENVQGSENLYFQGGSMVSKGEELIKENMHMKLYMEGTVNNHHFKCTSEGEGKPYEGTQTMRIKVVEGGPLPFAFDILATSFMYGSRTFINHTQGIPDFFKQSFPEGFTWERVTTYEDGGVLTATQDTSLQDGCLIYNVKIRGVNFPSNGPVMQKKTLGWEANTEMLYPADGGLEGRSDMALKLVGGGHLICNFKTTYRSKKPAKNLKMPGVYYVDHRLERIKEADKETYVEQHEVAVARYCDLPSKLGHKLNGSSGHHHHHHHH
notes: Fusion of RPtag(small), TEV site, tagRFP and 8XHis
B4: Cterminally_tagged_NativeRPtag(small)_tagRFP (other)
chain: MGSSHHHHHHHHGSMVSKGEELIKENMHMKLYMEGTVNNHHFKCTSEGEGKPYEGTQTMRIKVVEGGPLPFAFDILATSFMYGSRTFINHTQGIPDFFKQSFPEGFTWERVTTYEDGGVLTATQDTSLQDGCLIYNVKIRGVNFPSNGPVMQKKTLGWEANTEMLYPADGGLEGRSDMALKLVGGGHLICNFKTTYRSKKPAKNLKMPGVYYVDHRLERIKEADKETYVEQHEVAVARYCDLPSKLGHKLNGSSGENLYFQGGSGEKIPNFIPAELKLITKENVQGS
notes: Fusion of 8XHis, tagRFP, TEV site and RPtag(small)
B5: RPtag(large) f137d (designed binder)
chain: T1 chain with F137D
notes: also called F137D RPtag(large)
B6: f137e (designed binder)
single chain: T1 chain with F137E
notes: single mutant of RPtag large; also called RPtag(large) F137E
B7: h122w (designed binder)
single chain: T1 chain with H122W
notes: also called RPtag(large) H122W
B8: k129a (designed binder)
single chain: T1 chain with K129A
notes: also called RPtag(large) K129A
B9: k129f (designed binder)
single chain: T1 chain with K129F
notes: also called RPtag(large) K129F
B10: k129h (designed binder)
single chain: T1 chain with K129H
notes: also called RPtag(large) K129H
B11: k129y (designed binder)
single chain: T1 chain with K129Y
notes: also called RPtag(large) K129Y
B12: m270e (designed binder)
single chain: T1 chain with M270E
notes: also called RPtag(large) M270E
B13: m270k (designed binder)
single chain: T1 chain with M270K
notes: also called RPtag(large) M270K
B14: m270n (designed binder)
single chain: T1 chain with M270N
notes: also called RPtag(large) M270N
B15: m270r (designed binder)
single chain: T1 chain with M270R
notes: also called RPtag(large) M270R

Molecular target: T1, NativeRPtag(large)_with_Tags_and_Cys
Test: column binding; non-complementary tagRFP fusion applied to immobilized RPtag (large), washed, photographed

Row | Binder | binding result
1 | B1 | no binding (tested: 1 µM (25 mL applied))
2 | B2 | no binding (tested: 1 µM (25 mL applied))

Molecular target: T2, NativeRPtag small for immobilization
Test: column binding; non-complementary tagRFP fusion applied to immobilized RPtag (small), washed, photographed

Row | Binder | binding result
3 | B3 | no binding (tested: 1 µM (25 mL applied))
4 | B4 | no binding (tested: 1 µM (25 mL applied))

Molecular target: T3, RPtag(small) Nd2, Cd4
Test: fluorescence anisotropy; 2 nM rhodamine Nd2Cd4, unlabeled RPtag large variant titrated; bar of Ka = 1/Kd, right axis
Description: (§1) After the incubation, fluorescence anisotropy was measured, and the resultant curves were fit with the equation f=y0+(ymax−y0)*(Ptot+x+Kd−sqrt((Ptot+x+Kd)\hat{ }2−4*Ptot*x))/(2*Ptot), where y0 is the baseline anisotropy, ymax is the maximum anisotropy, Ptot is the fixed concentration of labeled peptide used, x is the variable concentration of protein used, and Kd is the measured Kd. […] Buffer was 50 mM Tris pH 8.0, 0.005% Tween20.

Row | Binder | binding result
5 | B5 | binds
6 | B6 | binds
7 | B7 | binds
8 | B8 | binds
9 | B9 | binds
10 | B10 | binds
11 | B11 | binds
12 | B12 | binds
13 | B13 | binds
14 | B14 | binds
15 | B15 | binds

Molecular target: T1, NativeRPtag(large)_with_Tags_and_Cys
Test: column binding; 25 mL of 1 µM tagRFP fusion applied to immobilized RPtag (large), washed with 10 mL TNE buffer, photographed
Description: (§2) After purification of the tagged proteins, each was applied to its complementary column to evaluate binding. […] Briefly, columns were first equilibrated in 20 mM Tris pH 8.0, 150 mM NaCl, 1 mM EDTA (TNE buffer), then 25 mL of 1 μM tagged protein in TNE buffer was applied to the column at a flow rate of 1 ml/min, then washed with 10 mL of TNE buffer. Columns were cleaned with 10 mL 100 mM Glycine pH 1.5 between uses.
(§3) Briefly, columns were equilibrated in 20 mM Tris pH 8.0, 150 mM NaCl, 1 mM EDTA (TEN buffer), then 25 mL of 1 μM tagged protein in TEN buffer was applied to the column at a flow rate of 1 ml/min. Thereafter, the column was washed with 10 mL of TEN buffer, and the results recorded by photograph (FIG. 8). Columns were cleaned with 10 mL 100 mM Glycine pH 1.5 between uses.

Row | Binder | binding result
16 | B3 | binds
17 | B4 | binds

Molecular target: T2, NativeRPtag small for immobilization
Test: column binding; 25 mL of 1 µM tagRFP fusion applied to immobilized RPtag (small), washed with 10 mL TNE buffer, photographed
Description: as §2, §3

Row | Binder | binding result
18 | B1 | binds
19 | B2 | binds

Molecular target: T4, MaturePDGF-β_NterminalPeptide
Test: fluorescence anisotropy; 20 nM rhodamine PDGF-β N-terminal peptide, unlabeled RPtag large variant titrated; bar of Ka = 1/Kd, left axis
Description: as §1

Row | Binder | binding result
20 | B5 | binds
21 | B6 | binds
22 | B7 | binds
23 | B8 | binds
24 | B9 | binds
25 | B10 | binds
26 | B11 | binds
27 | B12 | binds
28 | B13 | binds
29 | B14 | binds
30 | B15 | binds

Molecular target: T5, RPtag(small) l14a
Test: fluorescence anisotropy; 1 nM rhodamine RPtag small peptide, unlabeled RPtag large titrated, 1 h; 50 mM Tris pH 8.0, 0.005% Tween20; bar of Ka = 1/Kd
Description: (§4) Resultant curves were fit with the equation f=y0+(ymax−y0)*(Ptot+x+Kd−sqrt((Ptot+x+Kd)\hat{ }2−4*Ptot*x))/(2*Ptot), where y0 is the baseline anisotropy, ymax is the maximum anisotropy, Ptot is the fixed concentration of labeled peptide used, x is the variable concentration of protein used, and Kd is the measured Kd. […] Buffer was 50 mM Tris pH 8.0, 0.005% tween20.

Row | Binder | binding result
31 | B5 | binds
32 | B6 | binds

Molecular target: T6, native RPtag(small)
Test: as above
Description: as §4

Row | Binder | binding result
33 | B5 | binds
34 | B6 | binds

Molecular target: T7, RPtag(small) l14k
Test: as above
Description: as §4

Row | Binder | binding result
35 | B5 | binds
36 | B6 | binds
